Data set [1] is described as follows: aggregation and purification amounts of deglycosylated antibodies, before and after φ. To be noted: based on 100 ml culture. The class given is physicochemical.
Data set [2] concerns phosphorylation of VEGFR, Akt and ERK. Briefly: immunoblot of VEGF-dependent signaling in HUVECs. The class given is cell-based, human. To be noted: VEGF-treated HUVECs. The text has this: In order to investigate effects of deglyco C1 IgG on VEGF-dependent signaling actions in endothelial cells, VEGF-treated HUVECs were subjected to immunoblot analysis in the presence or absence of deglyco C1 IgG to monitor changes in phosphorylation of VEGFR (VEGF receptor), Akt and ERK (extracellular signal-regulated kinase).

In data set [3] the test system is HEK293F cells transfected with wild-type clec14a. Put plainly: clec14a-mediated cell-cell contact (cell aggregate) assay. It counts as cell-based, human. The source says: In order to identify the mechanism by which deglyco C1 IgG acts on angiogenesis, the number of cell aggregates formed from HEK293F cells transfected with wild-type clec14a and cultured in the presence or absence of parent antibody IgG or deglyco C1 IgG was monitored to conduct functional assay on clec14a-mediated cell-cell contacts.
The parent antibody IgG was used as a positive control group to specifically block clec14a-mediated cell-cell contacts.

Data set [4] in a line: in vivo toxicity in normal mouse. To be noted: intravenous, twice a week. The source says:
In order to investigate in vivo toxicity of deglyco C1 IgG, deglyco C1 IgG was intravenously injected into a normal mouse twice a week, and hepatic and renal functions, body weight, and apoptosis conditions of hepatic and renal tissues between control groups and experimental groups were then compared. The hepatic function was investigated by measuring serum concentrations of glutamic-oxaloacetic transaminase (GOT), glutamic pyruvic transaminase (GPT), and total bilirubin (TBIL), and the renal function was investigated by measuring the concentrations of blood urea nitrogen (BUN) and creatinine (CRE). Apoptosis was measured by TUNEL staining.

Data set [5] deals with VEGF-dependent tube formation. Put plainly: VEGF-dependent HUVEC tube formation assay. The class given is cell-based, human. The note with it: 20 μg ml^−1, 18 hours. The method, then:
In order to investigate in vitro effects of deglyco C1 IgG on VEGF-dependent angiogenesis, HUVECs were treated with VEGF in the presence or absence of deglyco C1 IgG, and then HUVEC tube formation assay was conducted. 150 μl of Matrigel was added to a 48-well plate and incubated at 37° C. for 30 minutes. HUVEC (10^5) cultured in EGM-2 were collected, seeded on the Matrigel-coated plate and incubated at 37° C. for 18 hours in the presence or absence of clone 1 IgG, parent antibody IgG, deglycosylated clec14a-CTLD IgG or bevacizumab. HUVECs cultured in VEGF-containing EBM (endothelial cell basal medium) were seeded to the Matrigel-coated plate and incubated at 37° C. for 18 hours in the presence or absence of deglyco C1 IgG (20 μg ml^−1).

The next data set has as its system HUVECs. Briefly: flow cytometry binding to endothelial cells. It counts as cell-based, human. As to the method:
In order to identify whether or not deglyco C1 IgG binds to human endothelial cells, flow cytometry was conducted with HUVECs. […] In addition, in order to measure binding affinity of C1 IgG to hclec14a-ECD (extracellular domain of human clec14a), binding affinity of antibody-antigen binding was measured in real time. It can be seen that deglyco C1 IgG has a KD constant (equilibrium dissociation constant) of 6 nM, which is similar to that of parent antibody IgG (FIG. 3C).

The subject of the next data set is U87 human glioma. Briefly: U87 tumor growth. The class given is in vivo.
Data set [6] deals with T1, hclec14-CTLD and hclec14a-ECD interaction (Homo sapiens, UniProt Q86T13).
T1 construct: hclec14a-CTLD-Fc-HRP was incubated together with purified hclec14a-ECD; hclec14a-ECD (extracellular domain of human clec14a); myc (C)
T1 sequence (Q86T13 33-173 limits assumed): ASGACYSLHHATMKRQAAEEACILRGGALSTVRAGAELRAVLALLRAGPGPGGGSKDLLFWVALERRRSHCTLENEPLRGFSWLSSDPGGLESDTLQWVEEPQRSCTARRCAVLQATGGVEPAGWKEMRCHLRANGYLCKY
Briefly: ELISA: interaction of hclec14a-CTLD-Fc-HRP with hclec14a-ECD. The note with it: increasing antibody concentration. It counts as binding. As to the method:
In addition, hclec14a-CTLD-Fc-HRP was incubated together with purified hclec14a-ECD in the presence of an increasing concentration of parent antibody IgG or deglyco C1 IgG, or in the absence thereof.

B1: deglyco C1 IgG: deglycosylated clone 1 IgG; light chain CDR1 TGSSSNIGRCGVT (SEQ ID NO: 2), N32R/N33C/S34G (antibody, V domains shown)
VH: EVQLVESGGGLVQPGGSLRLSCAVSGFTFSGYDMSWIRQAPGKGLEWVAGIYPDGGNTYYADSVKGRFTISRDDSKNTFYLQMNSLRAEDTAVYYCARGATWWVLGPFDYWGQGTLVTVSS
VL: DIQLTQSPSSLSASVGDRVTITCTGSSSNIGRCGVTWYQQKPGKAPKLLIYADSHRPSGVPSRFSGSGSGTDFTLTISSLQPEDFATYYCGAWDDSLSGYVFGQGTKVEIKR
Take B1: in data set [1], the “Final um, After φ” value is listed as 4.821 mg; the “Final um, Before φ” value is on record as 4.859 mg; the “Fraction1, After φ” value was 0.009 mg; the “Fraction1, Before φ” value is listed as 0.011 mg. For the same molecule, in data set [1], the “Fraction2, After φ” value was found to be 3.763 mg; the “Fraction2, Before φ” value worked out at 3.792 mg; the “Fraction3, After φ” value is 0.921 mg; the “Fraction3, Before φ” value stood at 0.938 mg. In data set [1], the “Fraction4, After φ” value worked out at 0.128 mg and the “Fraction4, Before φ” value is reported as 0.129 mg. For the same molecule, the “VEGF-dependent phosphorylation of VEGFR, Akt and ERK” value in data set [2] is “almost no effect”. For the same molecule, in data set [3], the “inhibition of clec14a-mediated cell-cell contacts (cell aggregates)” value is on record as “inhibitory efficacy”. Besides, in data set [4], the “apoptosis of hepatic and renal tissues (TUNEL)” value was “apoptosis conditions were observed”; the body weight entry is “no significant change in body weight”; the “hepatic and renal functions (GOT, GPT, TBIL, BUN, CRE)” value was “no significant change”. Moreover, the VEGF-dependent tube formation result in data set [5] is “removed VEGF-dependent tube formation significantly and almost perfectly”. Besides, the “binding to surfaces of HUVECs” value with HUVECs is given as “specifically bound to the surfaces of HUVECs”. Further, the body weight result with U87 human glioma (U87 tumor model) is given as “no impact on body weight”. In addition, the “tumor size of U87 cells” value in the data set with U87 human glioma (measured weekly for one month) is “significantly reduces the tumor sizes”. For the same molecule, the “suppression of interaction between hclec14-CTLD and hclec14a-ECD” value in data set [6] was “directly suppressed”.
